Target: factor inhibiting HIF (FIH), V5-tagged (FIH-V5) (UniProt Q9NWT6)
Assay: immunoblot of a denaturation-resistant (SDS-PAGE) complex; cells co-transfected, 24 h at the indicated oxygen levels (18.5–1% O2), blots quantified, oxygen sensitivity calculated

Chain of UniProt Q9NWT6 (Q9NWT6 whole entry): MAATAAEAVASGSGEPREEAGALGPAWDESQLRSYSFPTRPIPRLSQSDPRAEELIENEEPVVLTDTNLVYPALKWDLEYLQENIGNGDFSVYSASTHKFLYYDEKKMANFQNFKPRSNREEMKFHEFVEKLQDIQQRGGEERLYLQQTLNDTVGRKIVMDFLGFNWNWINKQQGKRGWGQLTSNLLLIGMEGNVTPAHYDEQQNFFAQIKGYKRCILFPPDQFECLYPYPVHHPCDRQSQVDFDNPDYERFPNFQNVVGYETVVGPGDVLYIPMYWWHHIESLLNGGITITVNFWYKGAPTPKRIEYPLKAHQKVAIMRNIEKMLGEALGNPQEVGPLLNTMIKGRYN

- EC50 of the oxygen level for oxomer formation: 7.6 % O2
Substance: NF-κB inhibitor β (IκBβ), FLAG-tagged (IκBβ-FLAG) (from UniProt Q15653 1-356) (natural protein)

Source: paper PMC11110689
